Here are results for 5 molecules from US20250032605A1 (GENERAL HOSPITAL, published 2025).

A word on the Kd: it is the free concentration of one partner at which half of the binding sites on the other are occupied at equilibrium, for simple one-to-one binding.

The chains are these.
B1: Ab20 Fab (Fab, V domains shown)
VH: EVQLQQSGPELVKPGASVKISCKASGFSFTGYSMNWMKQSPEKSLEWIGEINPTTGGTTYNQKFKAKATLTVDKSSSTAYIQLKSLTSEDSAVYYCARGRADYWGQGTTLTVSS
VL: DIVLTQSPASLAVSLGQRATISCRASESVEYYGTGLVQWFQQKPGQPPKLLIYAASNVESGVPARFSGSGSGTDFSLNIHSVEEDDIAMYFCHQSRKLPWTFGGGTKLEIK
B2: Ab15 Fab (Fab, V domains shown)
VH: EVQLQQSGPELVKPGASVKISCKASGYSFTGYYMNWVKQSPEKSLEWIGEINPNFGGTTYNQKFKAKATLTVDKSSSTAYMQLKSLTSEDSAVYYCARYYGNLYAMDYWGQGTSVTVS
VL: DILMTQSPSSMSVSLGDTVSITCHASQGISSNIGWLQQKPGKSFKGLIYHGTNLEDGVPSRFSGSGSGAAYSLTISSLESEDFADYYCVQYTHFPYTFGGGTKLEIK
B3: Ab19 Fab (Fab, V domains shown)
VH: QVQLQQSGAELARPGASVKLSCKASGYPFTSYGINWVKQRTGQGLEWIGEIYPRIGNTYYNEKFKGKATLTADKSSSTAYMEFRSLTSEDSAVYFCARSWNSNYGEYYFDYWGQGTTLTVS
VL: DIVMTQSHKFMSTSIGDRVSITCKASHDVSTAVAWYQQKPGQSPKLLIYWASTRHTGVPDRFTGSGSGTDYTLTIRSVQAEDLALYYCQQHYSTPYTFGGGTKLEIK
B4: Ab16 Fab (Fab, V domains shown)
VH: B2 VH with T30N, G31N, F55S, G57Y, T59S, K65R, S77T, Y100F, Y104F, Y108F
VL: B2 VL with S30G, H50L, A70D, T92V, H93Q
B5: Ab17 Fab (Fab, V domains shown)
VH: EVQLQQSGPELVKPGASVKISCKASGYSFTDYYMNWVKQSPEKSLEWIGEINPNTGGTTYNQKFKAKATLTVDKSSSTAYMQLKSLTSEDSAVYYCARYYGNLYAMDYWGQGTSVTVSS
VL: B2 VL with A70D, T92V, H93Q, F98L

Residue numbers refer to the chain shown, from its start.

One experiment has as its target T1, SARS-2 RBM^hg RBD construct (SARS-2 RBD with engineered glycans at 448, 475, 494 and 501) (SARS-CoV-2 (engineered), UniProt P0DTC2 319-529). Description: BLI with recombinant Fabs, drawn table of KD (µM), column ΔRBM.
Consider B1, for which the Kd is greater than 100000 nM. Still for that read-out and setting: for B2 the value was 1300 nM. B3: the Kd is greater than 100000 nM.

The target in another experiment is T1, SARS-2 RBM^hg RBD construct (SARS-2 RBD …). Description: BLI with recombinant Fabs, drawn table of KD (µM).
With B1, the Kd is greater than 100000 nM. Same read-out and setting: for B2 the value was 1300 nM. On the same count and under the same terms, as for B4, the figure is 160 nM; as for B5, 100 nM; as for B3, greater than 100000 nM.
